Experimental data published in the supplement of paper PMC10567573.

B1: BTBD1 (parent)
chain: TSAEIELPDVEPAAFLALLRFLYS

Variants of: B1
Assay: protein stability index of a GFP-peptide fusion (GPS, HEK-293T) (PSI 1-6); higher = more stable
Details: c terminus: a fixed tail appended
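Also: lentivirally expressed fusions sorted by FACS into six bins by GFP to DsRed ratio, PSI derived from sequencing read proportions per bin multiplied by bin number.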

Protein stability index, by site and new letter:
S24: W 1.89 | P 2.61 | T 1.97 | F 2.33 | N 1.78 | Q 2.33 | L 2.39 | E 1.69 | D 1.89 | A 2.19
S2: L 1.99 | H 1.82 | F 2 | V 1.87 | E 1.65 | P 2.33 | G 2.15 | T 1.74 | D 1.61
L16: F 2.06 | H 1.74 | P 1.94 | Q 2.31 | M 1.8 | C 1.99 | Y 1.53 | N 2.01 | I 1.62 | G 1.64 | T 1.87
P8: I 1.62 | Q 1.76 | C 1.49 | T 1.74 | R 1.93 | E 2.17 | F 2.23 | N 1.92 | H 1.63 | S 2.06 | A 1.97 | M 1.9 | Y 2.37
A13: V 2.02 | T 2.17 | H 2.16 | R 1.73 | I 1.8 | D 2.02 | N 2.5 | E 1.85 | L 1.81 | Y 1.59
L18: K 1.95 | W 2.2 | Q 1.83 | S 1.78 | I 2.69 | C 1.77 | N 1.57 | T 1.77 | Y 1.59 | A 1.08
L22: Y 1.83 | P 2.26 | K 1.91 | M 2.23 | E 2.07 | A 1.71 | I 1.75 | Q 1.5 | S 1.16 | W 1.56
A17: C 1.53 | E 2.12 | Y 1.98 | R 2.42 | L 2.04 | S 1.93 | K 1.88 | D 1.89 | F 1.98 | W 2 | N 2.06
F21: S 1.97 | I 2.25 | C 1.4 | G 2.18 | H 2.14 | Y 1.61 | E 1.82 | V 2.01 | T 1.89 | K 1.78
V10: M 1.95 | K 1.69 | G 2.23 | Q 2.22 | E 2.35 | H 1.65 | N 2.08 | P 2.32 | A 1.8 | I 1.8 | C 1.67
L19: P 2.11 | T 1.76 | A 1.9 | C 1.94 | Y 2.49 | F 1.58 | I 2.37 | G 1.89 | R 1.84 | S 1.69 | Q 1.51 | N 1.77
E4: P 1.64 | R 1.59 | Q 2.14 | A 1.84 | I 2.07 | S 1.45 | C 1.8 | D 1.66 | M 1.55 | W 1.88 | L 1.91 | Y 1.68 | K 1.17
R20: C 1.19 | G 2.67 | T 4.67 | Q 2.05 | W 3.4 | D 1.38 | A 2.08 | V 3.16 | K 1.29 | L 3.18 | F 2 | P 2.01
E11: G 2.44 | Q 1.56 | D 1.69 | A 1.84 | Y 2.14 | I 2.38 | V 1.52 | C 1.1 | R 2.11 | T 2.4 | N 2.15 | W 1.69 | H 1.91
E6: T 2.1 | V 1.67 | R 1.84 | L 1.73 | Q 2.01 | H 1.78 | A 2.19 | M 2.22 | F 1.64 | N 1.96 | Y 1.74 | P 2.31
